Numbering of substitutions follows the chain as printed. Names and notes keep the numbering of the source. Values joined by “and” are separate entries in the source; they are usually repeats but may differ in a detail not shown here. Equal entries are not always repeated.
B1: 2.1 chimera (murine/human chimeric form of antibody 2.1) (antibody, V domains shown)
VH: QVTLKESGPGILKPSQTLSLTCSFSGFSLRTSGMGVGWIRQPSGKGLEWLAHIWWDDDKSYNPSLKSQLTISKDTSRNQVFLKITSVDTADTATYYCARRNYYYDDYFAYWGQGTTLTVSS
VL: DVLMTQTPLSLPVSLGDQASISCRSSQSIVHSNGNTYLEWYLQKPGQSPKLLIYKVSNRFSGVPDRFSGSGSGTDFTLKISRVEAEDLGVYYCFQGSHVPLTFGAGTKLELK
notes: also called chimera 2.1; (CHO) 2.1 Chimera (control)
B2: 2.1 D (antibody, human IgG1, kappa)
heavy: not shown
light: DVVMTQSPLSLPVTLGQPASISCRSSQSIVHSNGNTYLEWYLQRPGQSPQLLIYKVSNRFSGVPDRFSGSGSGTDFTLKISRVEAEDVGVYYCFQGSHVPLTFGGGTKVEIKRTVAAPSVFIFPPSDEQLKSGTASVVCLLNNFYPREAKVQWKVDNALQSGNSQESVTEQDSKDSTYSLSSTLTLSKADYEKHKVYACEVTHQGLSSPVTKSFNRGEC
notes: Humanized IgG; also called 2.1 D (K5R)
B3: 2.1 A (antibody, human IgG1, kappa)
heavy: not shown
light: B2 light with V3L, Q50K, G105A, V109L
notes: Humanized IgG
B4: 2.1 B (antibody, human IgG1, kappa, V domains shown)
VH: QVTLRESGPALVKPTQTLTLTCTFSGFSLRTSGMGVGWIRQPPGKALEWLAHIWWDDDKSYNPSLKSQLTISKDTSKNQVVLTMTNMDPVDTATYYCARRNYYYDDYFAYWGQGTLVTVSS
VL: DVVMTQSPLSLPVTLGQPASISCRSSQSIVHSNGNTYLEWFVQRPGQSPRVLIYKVSNRFSGVPDRFSGSGSGTDFTLKISRVEAEDVGVYYCFQGSHVPLTFGGGTKLEIKR
notes: Humanized IgG; also called 2.1 B (K5R)
B5: 2.1 C (antibody, human IgG1, kappa)
heavy: not shown
light: B2 light with G105Q, V109L
notes: Humanized IgG; also called 2.1 C (K5R)
B6: 2.1 E (antibody, human IgG1, kappa)
heavy: not shown
light: B2 light with R44K, Q50R
notes: Humanized IgG; also called 2.1 E (K5R); 2.1E.K5R
B7: 2.1 E K5 (antibody)
heavy: not shown
light: B2 light with R44K, Q50R
notes: Humanized IgG
B8: 2.1 F (antibody, human IgG1, kappa)
heavy: not shown
light: B2 light with V2I, L15P, Q17E
notes: Humanized IgG; also called 2.1 F (K5R)
B9: 2.1 G (also described as 2.1 GK5R) (antibody, human IgG1, kappa)
heavy: not shown
light: B2 light with V2I, L15P, Q17E, R44K, Q50R
notes: Humanized IgG
B10: 2.1 G K5 (antibody, human IgG1, kappa)
heavy: not shown
light: B2 light with V2I, L15P, Q17E, R44K, Q50R
notes: Humanized IgG
B11: 2.1 I (also described as 2.1 I K5R) (antibody, human IgG1, kappa, V domains shown)
VH: B4 VH
VL: B4 VL with V2I, L15P, Q17E, F41Y, V42L, R44K, R50Q, V51L, L109V
notes: Humanized IgG
B12: 2.1 J (antibody, human IgG1, kappa, V domains shown)
VH: B4 VH with R5K
VL: B4 VL with V42Q, V51R, G105Q
B13: 2.1 K (antibody, human IgG1, kappa, V domains shown)
VH: B4 VH with R5K, A46G, L116T, V117L
VL: B4 VL with V3L, F41Y, V42L, R50K, V51L, G105A
B14: 2.1 L (antibody, human IgG1, kappa)
heavy: not shown
light: B2 light with V3L, Q50K, G105A, V109L
notes: Humanized IgG

Experiments:
human Aβ42 fibrils [1] = biological target: T1, human Aβ42 fibrils (human, UniProt P05067 672-713); experiment: BIAcore, antibody injected over immobilized Aβ fibrils
T1 construct: domain: Aβ42; Aggregated (fibrillar) form; also called Fibrillar Aβ42; Aβ42 aggregate
Protocol: (§1) Preparation of BIacore Chip Surfaces: Immobilization of Proteins to a Biacore sensor chip (CM5) was performed according to manufacturer's instructions. Briefly, carboxyl groups on the sensor chip surfaces were activated by injecting 60 μL of a mixture containing 0.2 M N-ethyl-N′-(dimethylaminopropyl)carbodiimide (EDC) and 0.05 M N-hydroxysuccinimide (NHS). Specific surfaces were obtained by injecting rProtein G (Pierce), goat anti-mouse Fc (Jackson Immuno Research Lab) or Aβ aggregates diluted in 10 mM acetate, pH 4.0 at concentrations between 5 and 20 μg/mL. Excess reactive groups on the surfaces were deactivated by injecting 60 μL of 1 M ethanolamine. Final immobilized levels were about 10000 resonance units (RU) for the Protein G and anti-mouse Fc surfaces, and 400 RU for the Aβ aggregates surfaces. A blank, mock-coupled reference surface was also prepared on the sensor chips for background subtraction.
(§2) Kinetic analysis of antibodies binding to immobilized Aβ aggregates: Antibodies were diluted in PBS+0.005% P-20+0.1 mg/mL BSA from 100 nM to 0.2 nM. The samples at each concentration were injected over the immobilized Aβ aggregate surfaces, as well as over a blank surface for background subtraction. After a 15-minute dissociation, the surface was regenerated by injecting 8 mM glycine, pH 3.0, and 1 M NaCl for 30 seconds.
(§3) The kinetic analysis assay as described above was repeated using various humanized versions of anti-Aβ antibodies (2.1 chimera, 2.1 B, 2.1 C, 2.1 D, 2.1 E, 2.1 F, 2.1 G, 2.1 E.K5, 2.1E.K5R, 2.1 G.K5, 2.1 G.K5R, 2.1 I.K5R and 2.1 L).

human Aβ40 fibrils [2] = biological target: T2, human Aβ40 fibrils (human, UniProt P05067 672-711); experiment: as above
T2 construct: domain: Aβ40; Aggregated (fibrillar) form; also called Fibrillar Aβ40; Aβ40 aggregate
Protocol: as §1, §2, §3

human Aβ42 fibrils [3] = biological target: T1, human Aβ42 fibrils; experiment: ELISA on plate-dried fibrils, time-resolved europium fluorescence
Protocol: (§4) The fibrils (Aβ or collagen) were diluted to 10 μg/ml in water and mixed thoroughly. The solution was aliquoted into the wells of a microtiter plate (Immulon-2; VWR; Cat # 62404-972) at 50 μl per well (resulting in 0.5 μg fibrils/well final). The plate was dried overnight by being placed uncovered in a 37° C. incubator.
(§5) The wells were blocked with 200 μl of blocking solution and incubated for ≧1 hour at room temperature (RT) with shaking. The blocking solution was flicked out and gently dried on a paper towel. 100 μl of primary antibody diluted in PBS containing 10% blocking solution was added to each well and the plate was incubated at RT for 1 hour with shaking. The plate was washed with 5-10× in TBS, pH 7.5+0.05% Tween 20. 100 μl of secondary antibodies (each diluted 1-2,000-fold in PBS) was added to each well and the plate was incubate at RT for 1 hour with shaking. The plate was washed with 5-10× in TBS, pH 7.5+0.05% Tween 20. 100 μl Streptavidin-Europium reagent (1-1,000-fold dilution) was added and the plated was incubated at RT for 45 minutes with shaking. The plate was washed 5-10× in TBS, pH 7.5+0.05% Tween 20. 120 μl Enhance Solution was added and the plate was incubated at RT for 15-30 minutes with shaking. The plate was read on a Victor TRF plate reader (Europium program).

human Aβ40 fibrils [4] = biological target: T2, human Aβ40 fibrils; experiment: as above
Protocol: as §4, §5

[5] = biological target: native amyloid plaques in unfixed brain sections of Tg2576 APP transgenic mice (human, UniProt P05067 672-713, limits assumed); experiment: cell-based or functional assay
human Aβ42 monomer [6] = biological target: T3, human Aβ42 monomer (human, UniProt P05067 672-713); experiment: ELISA on plate-coated monomer, time-resolved europium fluorescence
T3 construct: domain: Aβ42; Monomeric form
Protocol: (§6) The same techniques were used for the coating of the microtiter plate for monomer ELISA. The fibrils Aβ monomer were diluted to 2.5 μg/ml in Coating buffer and mixed thoroughly. The solution was aliquoted into the wells of a microtiter plate [Immulon-2; VWR; Cat.#62404-972] at 100 μl per well. The plate was sealed and incubated overnight at 4° C. The plate was washed 5-10× to remove Aβ coating solution prior to starting the assay.
as §5

human Aβ40 monomer [7] = biological target: T4, human Aβ40 monomer (human, UniProt P05067 672-711); experiment: as above
T4 construct: domain: Aβ40; Monomeric form
Protocol: as §6, §5

human Aβ42 monomer [8] = biological target: T3, human Aβ42 monomer; experiment: BIAcore, antibody captured on protein G or anti-mouse Fc, Aβ monomer injected
Protocol: as §1
(§7) Kinetic analysis of Aβ monomers binding to protein G captured antibodies: The kinetic analysis of the interaction between Aβ monomers and antibodies was performed as follows: 2.1A and mAb 2.1 were diluted in PBS+0.005% P-20+0.1 mg/mL BSA and injected over the immobilized protein G or anti-mouse Fc surfaces. Aβ monomers were diluted in PBS+0.005% P-20+0.1 mg/mL BSA from 1000 nM to 2 nM, and each concentration was injected over the captured antibody surfaces. After 3 minutes dissociation, each surface was regenerated by injection of 10 mM glycine, pH 1.5.

human Aβ40 monomer [9] = biological target: T4, human Aβ40 monomer; experiment: as above
Protocol: as §1, §7

[10] = biological target: amyloid plaques in unfixed brain sections of a human AD patient (human, UniProt P05067 672-713); experiment: cell-based or functional assay
human Aβ42 fibrils [11] = biological target: T1, human Aβ42 fibrils; experiment: BIAcore, antibody injected over immobilized Aβ aggregates
Protocol: as §1, §2

human Aβ40 fibrils [12] = biological target: T2, human Aβ40 fibrils; experiment: as above
Protocol: as §1, §2

T3 sequence (P05067 672-713 limits assumed): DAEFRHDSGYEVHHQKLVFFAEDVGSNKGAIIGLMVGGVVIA
Chain of native amyloid plaques in unfixed brain sections of Tg2576 APP transgenic mice (P05067 672-713 limits assumed): as above
T1 sequence (P05067 672-713 limits assumed): as above
T4 sequence (P05067 672-711 limits assumed): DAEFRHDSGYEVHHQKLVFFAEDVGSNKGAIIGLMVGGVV
T2 sequence (P05067 672-711 limits assumed): as above
Chain of amyloid plaques in unfixed brain sections of a human AD patient (P05067 672-713): as the sequence (P05067 672-713 limits assumed) above

Binder | koff (human Aβ42 fibrils [1]) | koff (human Aβ40 fibrils [2]) | EC50 (µg/ml), ex vivo phagocytosis [5] | other results
B1 | 6.9e-05 s⁻¹ and 6.3e-05 s⁻¹ | 0.00012 s⁻¹ and 5.9e-05 s⁻¹ | 0.8 µg/mL | EC50 (human Aβ42 fibrils [3]): 0.072 nM; EC50 (human Aβ40 fibrils [4]): 0.06 nM; EC50 (µg/ml), ex vivo phagocytosis; 2.1 Chimera (293) [5]: 1.08 µg/mL; EC50 (µg/ml), ex vivo phagocytosis; 2.1 Chimera (CHO) [5]: 0.7 µg/mL; EC50 (human Aβ42 monomer [6]): 0.034 nM; EC50 (human Aβ40 monomer [7]): 0.031 nM
B2 | 5.5e-05 s⁻¹ | 0.00012 s⁻¹ | – | –
B3 | < 5e-05 s⁻¹ | < 5e-05 s⁻¹ | 0.83 µg/mL | Kd (human Aβ42 monomer [8]): 50 nM; koff (human Aβ42 monomer [8]): 0.0049 s⁻¹; kon (human Aβ42 monomer [8]): 98000 M⁻¹ s⁻¹; Kd (human Aβ40 monomer [9]): 68 nM; koff (human Aβ40 monomer [9]): 0.0094 s⁻¹; kon (human Aβ40 monomer [9]): 140000 M⁻¹ s⁻¹; EC50 of phagocytosis by IC-21 cells on human AD brain sections [10]: 0.72 µg/mL; EC50 (human Aβ42 fibrils [3]): 0.074 nM; EC50 (human Aβ40 fibrils [4]): 0.065 nM; koff (human Aβ42 fibrils [11]): < 5e-05 s⁻¹; koff (human Aβ40 fibrils [12]): < 5e-05 s⁻¹; EC50 (human Aβ42 monomer [6]): 0.031 nM; EC50 (human Aβ40 monomer [7]): 0.029 nM
B4 | 0.00019 s⁻¹ | 0.00024 s⁻¹ | – | –
B5 | < 5e-05 s⁻¹ | 0.00015 s⁻¹ | – | –
B6 | < 5e-05 s⁻¹ | 0.00011 s⁻¹ and < 5e-05 s⁻¹ | 2.23 µg/mL | –
B7 | < 5e-05 s⁻¹ | < 5e-05 s⁻¹ | 3.94 µg/mL | –
B8 | 0.00012 s⁻¹ | 0.00015 s⁻¹ | – | –
B9 | < 5e-05 s⁻¹ | 0.00011 s⁻¹ and < 5e-05 s⁻¹ | 0.94 µg/mL | –
B10 | < 5e-05 s⁻¹ | < 5e-05 s⁻¹ | 1.78 µg/mL | –
B11 | < 5e-05 s⁻¹ | < 5e-05 s⁻¹ | 0.69 µg/mL | –
B12 | – | – | 1.22 µg/mL | –
B13 | – | – | 0.84 µg/mL | EC50 of phagocytosis by IC-21 cells on human AD brain sections [10]: 0.76 µg/mL
B14 | < 5e-05 s⁻¹ | < 5e-05 s⁻¹ | 0.82 µg/mL and 0.73 µg/mL | –

— patent US20080292639A1 (Amgen, published 2008)
